Measured values: the supplement of paper PMC7125110
± gives the standard error. Variants at the floor of the assay were thinned out.

B1: glmS ribozyme (parent)
chain: AUAAAAGCGCCAGAACUACAGAAAUGUAGUUGACGAGGAGGAGGUUUAUCGAAUUUUCGGCGGAUGCCUCCAAA

Key:
Settings in all cases: with glucosamine-6-phosphate
glucosamine-6-phosphate [1] = variants of: B1; assay: self-cleavage kobs at 640 uM GlcN6P; higher = faster cleavage; RNA array
Summary of the method: (§1)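 Barcoded ribozyme variants were transcribed in situ on sequenced MiSeq chips by E. coli RNA polymerase. At 37 °C, a hybridised Cy3 probe tracked them while glucosamine-6-phosphate (40 μM to 10 mM) in HEPES/KCl/Mg(OAc)2 buffer flowed in and tiles were imaged over ~14 h. Per-tile medians of signals normalised to baseline and to non-cleaving reference variants were fit to one- or two-exponential decays, giving kobs. kcat and KM came from weighted Michaelis–Menten fits across concentrations.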

glucosamine-6-phosphate [2] = variants of: B1; assay: self-cleavage kobs at 2500 uM GlcN6P; higher = faster cleavage; RNA array
Summary of the method: as §1

glucosamine-6-phosphate [3] = variants of: B1; assay: self-cleavage kobs at 10000 uM GlcN6P; higher = faster cleavage; RNA array
Summary of the method: as §1

Row | Variant | self-cleavage kobs at 640 uM GlcN6P (glucosamine-6-phosphate [1]) [s⁻¹] | self-cleavage kobs at 2500 uM GlcN6P (glucosamine-6-phosphate [2]) [s⁻¹] | self-cleavage kobs at 10000 uM GlcN6P (glucosamine-6-phosphate [3]) [s⁻¹]
1 | G35A G38U A42C U55C | < 1e-05 | – | –
2 | G35U G40U G63U C71G | < 1e-05 | – | –
3 | G40A U45C C50A G60A C67A | < 1e-05 | < 1e-05 | –
4 | G32U A42G G66U C68U | < 1e-05 | – | –
5 | C34U C68U C70U | < 1e-05 | – | –
6 | G38C U56G C58U | < 1e-05 | – | –
7 | G38A A42G G62U | < 1e-05 | – | –
8 | G32A A33G C50A | < 1e-05 | – | < 1e-05
9 | G35U U57A | < 1e-05 | – | < 1e-05
10 | G41U C50A U65A | < 1e-05 | – | –
11 | G32U U55A C71A | 9.04e-05 ± 2.8e-05 | 8.28e-05 ± 3.5e-05 | –
12 | G40C U56C A64C C70A | < 1e-05 | – | –
13 | A33C G35C U56C C67U | < 1e-05 | – | –
14 | G35A G37A U46A G51C G59U | < 1e-05 | < 1e-05 | –
15 | G32C G35U A52G | < 1e-05 | < 1e-05 | –
16 | G32A A36C U55G C67G C68G | 0.000126 ± 3.4e-05 | 4.75e-05 ± 1.2e-05 | –
17 | G37C G40C U49A | < 1e-05 | < 1e-05 | –

Row | Variant | self-cleavage kobs at 640 uM GlcN6P (glucosamine-6-phosphate [1]) [s⁻¹] | self-cleavage kobs at 2500 uM GlcN6P (glucosamine-6-phosphate [2]) [s⁻¹] | self-cleavage kobs at 10000 uM GlcN6P (glucosamine-6-phosphate [3]) [s⁻¹]
18 | C34G C61G G62C | < 1e-05 | – | –
19 | A33U G43A A48U C61U C70U | < 1e-05 | < 1e-05 | –
20 | G41U U47G A53U | 9.96e-05 ± 2.8e-05 | 0.000276 ± 6.9e-05 | –
21 | A36U G41U U55A | < 1e-05 | < 1e-05 | –
22 | C34G U45A U57C | < 1e-05 | – | –
23 | G35C G38A A64G | < 1e-05 | < 1e-05 | –
24 | A36U G43A | < 1e-05 | < 1e-05 | < 1e-05
25 | A33U C34G U49A A53U | < 1e-05 | – | < 1e-05
26 | A33C G41U U47G U65C C68A | < 1e-05 | – | –
27 | C34U G43U A53G U55A A64U | < 1e-05 | < 1e-05 | –
28 | A36U C50G G66U | 0.00107 ± 0.0003 | – | –
29 | G37C A39G U45A U49A | < 1e-05 | < 1e-05 | –
30 | G41C C50G G51C | < 1e-05 | – | –
31 | G37U G38C U49G U56G | < 1e-05 | – | –
32 | G37C U45G G63U | < 1e-05 | < 1e-05 | –
33 | G35C A36C A42C G43C G51A | < 1e-05 | < 1e-05 | –
